Molecular target: T1, Lp-PLA2 (Homo sapiens, UniProt Q13093)
T1 construct: purchased diaDexus, USA
T1 sequence (Q13093 22-441): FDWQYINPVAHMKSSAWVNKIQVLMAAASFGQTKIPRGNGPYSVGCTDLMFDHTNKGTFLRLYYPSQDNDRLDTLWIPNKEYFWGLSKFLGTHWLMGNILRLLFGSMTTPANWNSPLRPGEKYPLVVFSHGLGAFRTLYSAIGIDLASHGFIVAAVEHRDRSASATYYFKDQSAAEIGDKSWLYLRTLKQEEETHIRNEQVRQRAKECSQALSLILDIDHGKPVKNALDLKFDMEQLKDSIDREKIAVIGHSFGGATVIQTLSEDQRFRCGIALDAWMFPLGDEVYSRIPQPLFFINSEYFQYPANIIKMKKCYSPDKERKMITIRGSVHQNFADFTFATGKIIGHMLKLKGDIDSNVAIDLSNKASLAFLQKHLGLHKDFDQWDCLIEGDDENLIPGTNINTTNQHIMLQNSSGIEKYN
Assay: Competition binding of Lp-PLA2 to Apo C-III-coated microplate (ELISA, absorbance)
Protocol: After Apo C-III was diluted with 100 mM carbonate buffer (pH 9.5) at a concentration of 2 μg/ml, the Apo C-III solution (100 μl) was added to each well in a microplate, which was coated at 37° C. incubator for 2 hrs. And then, the Apo C-III solution was removed from each well and 200 μl PBS supplemented with 1% BSA was added to each well. After incubation at 37° C. incubator, the solution was removed from each well that was then dried.
Tween-20 (0.05%)-containing PBS buffer (pH 7.4) was used for dilution, reaction and washing buffer in the experiment. Each 100 μl Lp-PLA2 (1 μg/ml) was added to Apo C-III-coated microplate well (FIG. 2a). Or, Lp-PLA2 and Apo C-III was diluted at a final concentration of 1 μg/ml and 0.5 μg/ml, respectively, and the solution (100 μl) was added to Apo C-III-coated microplate well (FIG. 2b). Each reaction preparation was incubated at 37° C. incubator for 50 min, and then removed from the well, followed by washing 2 times. Anti-Lp-PLA2 antibody solution (100 μl) diluted to 5 μg/ml was added to the washed well and incubated at 37° C. incubator for 50 min. The solution was removed and each well was washed 2 times. […] After 100 μl H2SO4 (2 N) was added to each washed well, the absorbance was measured. The measurement of absorbance utilized TECAN Infinit M200: wavelength measurement, 450 nm; and calibration wavelength, 620 nm. […]

- Final signal intensity (absorbance: Ab 620 nm), mean (Lp-PLA2 1 μg/ml plus free Apo C-III 0.5 μg/ml added to Apo C-III-coated microplate well, Lp-PLA2 alone gave 0.208): 0.130
- reduction of signal compared with sample without free Apo C-III (Lp-PLA2 1 μg/ml plus free Apo C-III 0.5 μg/ml, Apo C-III-coated microplate): 37.6%
Substance: Apolipoprotein C-III [Apo C-III]
